In paper PMC7517009, “Variants of the human RAD52 gene confer defects in ionizing radiation resistance and homologous recombination repair in budding yeast” (Microbial Cell, 2020):
Several values for one entry are separate records, joined by “and”; a condition that tells them apart may be missing. Identical values can stand only once.

Key:
[1] = biological target: the molecule itself; test: two-hybrid; Gal4 DNA-binding domain (pGBT9) and Gal4 transcription activation domain (pGAD424) fusions in yeast strain Y187; beta-galactosidase specific activity in cell extracts, Miller units
[2] = biological target: the molecule itself; test: SEC; Superdex 200 in 10 mM Tris HCl, 300 mM NaCl, 2 mM BME, pH 8.0, 0.5 mL/min; size of the multimer estimated from the elution volume

Protein	beta-galactosidase activity, fold above background [1]	stoichiometry N [2]
HsRAD52 (human RAD52), wild type, Gal4 fusion proteins (natural protein, UniProt P43351 1-418, looked up, RAD52, human, wild type; no chain carries both; Probably the whole protein; also called pGBT9-HsRAD52; pGAD424-HsRAD52; source: yeast two-hybrid fusion, yeast strain Y187) MSGTEEAILGGRDSHPAAGGGSVLCFGQCQYTAEEYQAIQKALRQRLGPEYISSRMAGGGQKVCYIEGHRVINLANEMFGYNGWAHSITQQNVDFVDLNNGKFYVGVCAFVRVQLKDGSYHEDVGYGVSEGLKSKALSLEKARKEAVTDGLKRALRSFGNALGNCILDKDYLRSLNKLPRQLPLEVDLTKAKRQDLEPSVEEARYNSCRPNMALGHPQLQQVTSPSRPSHAVIPADQDCSSRSLSSSAVESEATHQRKLRQKQLQQQFRERMEKQQVRVSTPSAEKSEAAPPAPPVTHSTPVTVSEPLLEKDFLAGVTQELIKTLEDNSEKWAVTPDAGDGVVKPSSRADPAQTSDTLALNNQMVTQNRTPHSVCHQKPQAKSGSWDLQTYSADQRTTGNWESHRKSQDMKKRKYDPS	80 fold	
HsRAD52-S346X, His-tagged, bacterially expressed (domain or fragment, human, UniProt P43351 1-345, looked up, RAD52, human, naturally occurring truncating variant S346X (stop codon in place of S346); pET28b construct; also called pLAY970; source: E. coli Artic Express, purified (Ni-NTA, heparin, Superdex 200)) MSGTEEAILGGRDSHPAAGGGSVLCFGQCQYTAEEYQAIQKALRQRLGPEYISSRMAGGGQKVCYIEGHRVINLANEMFGYNGWAHSITQQNVDFVDLNNGKFYVGVCAFVRVQLKDGSYHEDVGYGVSEGLKSKALSLEKARKEAVTDGLKRALRSFGNALGNCILDKDYLRSLNKLPRQLPLEVDLTKAKRQDLEPSVEEARYNSCRPNMALGHPQLQQVTSPSRPSHAVIPADQDCSSRSLSSSAVESEATHQRKLRQKQLQQQFRERMEKQQVRVSTPSAEKSEAAPPAPPVTHSTPVTVSEPLLEKDFLAGVTQELIKTLEDNSEKWAVTPDAGDGVVKP		~6 subunits and ~8 subunits
HsRAD52_(1-212), the N-terminal 212 amino acids of HsRAD52 (domain or fragment, human, UniProt P43351 1-212, looked up, RAD52, human, N-terminal 212 amino acids (1-212); pET28b construct; also called pLAY855; source: E. coli Artic Express, purified (Ni-NTA, heparin, Superdex 200)) MSGTEEAILGGRDSHPAAGGGSVLCFGQCQYTAEEYQAIQKALRQRLGPEYISSRMAGGGQKVCYIEGHRVINLANEMFGYNGWAHSITQQNVDFVDLNNGKFYVGVCAFVRVQLKDGSYHEDVGYGVSEGLKSKALSLEKARKEAVTDGLKRALRSFGNALGNCILDKDYLRSLNKLPRQLPLEVDLTKAKRQDLEPSVEEARYNSCRPNM		13 subunits and 14 subunits
HsRAD52-G59R_(1-212), the N-terminal 212 amino acids of HsRAD52-G59R (domain or fragment, human, UniProt P43351 1-212, looked up, RAD52, human, N-terminal 212 amino acids (1-212) with the naturally occurring variant G59R; pET28b construct; also called pLAY971; source: E. coli Artic Express, purified (Ni-NTA, heparin, Superdex 200)) MSGTEEAILGGRDSHPAAGGGSVLCFGQCQYTAEEYQAIQKALRQRLGPEYISSRMAGRGQKVCYIEGHRVINLANEMFGYNGWAHSITQQNVDFVDLNNGKFYVGVCAFVRVQLKDGSYHEDVGYGVSEGLKSKALSLEKARKEAVTDGLKRALRSFGNALGNCILDKDYLRSLNKLPRQLPLEVDLTKAKRQDLEPSVEEARYNSCRPNM		13 subunits and 14 subunits
